Biological target: Aβ40 fibrils formed from a synthetic Aβ40 peptide (human)
Assay: cell-based or functional assay

nattokinase (from UniProt P35835 107-381) (enzyme)
rate of Aβ fibril degradation (37 C, pH 7.4, ThT binding assay): 0.015 s⁻¹
